Values quoted from earlier work, collected in PMC4554922.

Molecular target: SAS-6 head domain (UniProt Q6UVJ0)

In the case of SAS-6 head domain (from UniProt Q6UVJ0), the Kd is given as 80 µM.
